± gives the half width of the 95% confidence interval.
Experiments:
[1] = folding stability dG unfold from trypsin proteolysis; higher = more stable
Procedure, shortened: (§1)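 K50 was inferred by Bayesian fitting of sequencing counts obtained after protease digestion of designed mini-proteins. Unfolding free energy was derived by comparison with a sequence-predicted unfolded-state K50 and a shared folded-state K50, for each protease or both combined. The mini-proteins were under 80 residues, had no cysteine, were carried in a PA-tagged cDNA display construct, and were kept only if AlphaFold2 dimer inter-PAE exceeded 15.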

[2] = folding stability dG unfold from chymotrypsin proteolysis; higher = more stable
Procedure, shortened: as §1

[3] = folding stability dG unfold (combined trypsin and chymotrypsin); higher = more stable
Procedure, shortened: as §1

Sequence	folding stability dG unfold [1]	folding stability dG unfold [2]	folding stability dG unfold [3]
SAGGSAGGSAGGPEWRWREFTIPGDPEEIKKLFPNFKILSPEPPPNGMRKVTIWIPPEDSAGGSAGGSAGGS [r10_764_TrROS]	-0.0853 ± 0.6 kcal/mol	1.54 ± 0.079 kcal/mol	1.27 ± 0.12 kcal/mol
SAGGMPGEVVDISDVPPGATLYDPEGKSYGPVVDVRVTVGPDSVEITITFPDGTTRTITAPRDKIYILPSAG [r5_850_JUSTAS]	1.83 ± 0.083 kcal/mol	1.24 ± 0.065 kcal/mol	1.59 ± 0.14 kcal/mol
SAGGSAGGSPDNWITFIFISISYKWKITKWDPENGGWKIEIKDVSIEIEIIRLPADDADKLFKSAGGSAGGS [r12_723_TrROS]	2.63 ± 0.079 kcal/mol	4.34 ± 0.062 kcal/mol	3.85 ± 0.13 kcal/mol
SAGGSAGGEEEETVTLTLEVEVEAEVKVEKNADGEETEVEVKVKRVRVRLTLTLTKEELEKLLKSAGGSAGG [r6_119_TrROS_Hall]	2.59 ± 0.14 kcal/mol	4.17 ± 0.15 kcal/mol	3.54 ± 0.31 kcal/mol
SAGGTIMIPFDTPEQAKDIREAAKDGEPIEIRPPDGKPIKFKIKDVEVDPNSGWLVIKIPNGRTIPISAGGS [r16_254_TrROS]	-0.179 ± 0.19 kcal/mol	0.151 ± 0.15 kcal/mol	0.0332 ± 0.097 kcal/mol
SAGGSAGPTTTPTTYARITATLRKGGETITVELEVPTSVVEEAVEALAKELGVEIEKVEVTLTEERSAGGSA [r15_535_JUSTAS]	2.08 ± 0.027 kcal/mol	2.4 ± 0.042 kcal/mol	2.3 ± 0.08 kcal/mol
SAGGSAEKPPYVIRLEITVKGPGKKVKLDILVDSPEELEAVIQALKDLGFTDIEPKIETFPLEELDSAGGSA [r15_1015_TrMRF]	1.63 ± 0.12 kcal/mol	2.42 ± 0.11 kcal/mol	2.18 ± 0.17 kcal/mol
SAGGSMLEKEEGDTLVKTVLQPVPEDLSREVLVTTTTKLLPNGSEVTVTVRSPFTGEPLSSSVVLSSAGGSA [r2_412_JUSTAS]	0.458 ± 0.054 kcal/mol	0.635 ± 0.13 kcal/mol	0.602 ± 0.066 kcal/mol
SMYKVKVKLLITNPKTGEKLEVEVEATLEEAEKLAEELEKKYPELNWKVEIKEIEIYPIPKPVLVKPGEASA [r9_14_TrMRF]	2.45 ± 0.34 kcal/mol	3.51 ± 0.096 kcal/mol	3.46 ± 0.22 kcal/mol
SAGGSAMKIVEKKTVTLTLPDGREVTVTLTKVEVDGETYYVLTVTDKDTGKTYTFVFKPGQSLEDLSAGGSA [r15_75_TrROS_Hall]	3.17 ± 0.092 kcal/mol	4.67 ± 0.083 kcal/mol	4.39 ± 0.2 kcal/mol
SAGGSAGGSSPLLEAALEIAKTLPPDSEVELPILNPETGTFVRVRVVYDEETGEFKVESVEFSSAGGSAGGS [r12_186_TrMRF]	1.5 ± 0.018 kcal/mol	1.44 ± 0.12 kcal/mol	1.54 ± 0.1 kcal/mol
SAMILPKTVPKTITYPGSEEEARAVAEAEAARLKAQGNVTVDITFVKKSPEGGYTIEITITDYAPPELLSAG [r14_413_JUSTAS]	0.77 ± 0.12 kcal/mol	0.933 ± 0.28 kcal/mol	0.861 ± 0.23 kcal/mol
SAGGSAGGSAGGPNLRIKLKPYPDGKWKIDEIEVPDNHVTIPMRFGNGGEERKTMPPEQISAGGSAGGSAGG [r7_829_TrROS]	1.42 ± 0.065 kcal/mol	-0.484 ± 0.48 kcal/mol	0.666 ± 0.29 kcal/mol
SAGGSAGGGDAESYAKEKGFVEIKVTKLPDGSERVTAKYPDGTTADILYTPGQGTFTLLETKKESAGGSAGG [r6_906_JUSTAS]	0.154 ± 0.034 kcal/mol	0.407 ± 0.082 kcal/mol	0.332 ± 0.078 kcal/mol
SAGGSAGGSAGKAVFIRELENGAIVLAVPFPDSVRLRVFPLTPGGEVESVEEFTLAPEELSAGGSAGGSAGG [r11_88_TrMRF]	-0.0256 ± 0.16 kcal/mol	0.842 ± 0.088 kcal/mol	0.591 ± 0.08 kcal/mol
SKEVKVKVKVVAPFYNKTKPFPLNIEVEVTVSSSNPELSPEKLTPENLAKIAAEKAREILLKLGIPEEFLSA [r9_516_TrMRF]	2.63 ± 0.14 kcal/mol	3.09 ± 0.14 kcal/mol	2.86 ± 0.34 kcal/mol
SAGGSAGGSAGGEPEVEITIEVEERDGELVVRVTARFKDTDETITVEMTLEEVEALLKASAGGSAGGSAGGS [r10_1187_TrROS_Hall]	2.54 ± 0.061 kcal/mol	2.17 ± 0.061 kcal/mol	2.37 ± 0.077 kcal/mol
SAAEKLPDGTIVIKLTEEEYKKLTEEEIEKIKEELKKEYPENVTVEIKPTKAKKIPTEPFEKGEKYNESSAG [r14_312_JUSTAS]	-0.313 ± 0.37 kcal/mol	-0.267 ± 0.37 kcal/mol	< -1 kcal/mol
SAMKFKITEVKIISVEKKKDGKKTIVIEMKVEKGEEKITIEFDKNGKIKKVSVEKLPDGKTVRVTIEIDSAG [r14_189_TrROS_Hall]	1.49 ± 0.28 kcal/mol	2.95 ± 0.087 kcal/mol	2.52 ± 0.49 kcal/mol
SAGGSAGGSAGGSPLKIKIVEVKEHKNPDGKPRRRIMMRFPNGRTLHIDMNGNLEIMPASAGGSAGGSAGGS [r4_111_TrROS]	0.0795 ± 0.19 kcal/mol	0.176 ± 0.32 kcal/mol	0.188 ± 0.22 kcal/mol
SAGGKKITVTVTRERTEDGTLRVTVTLRDEETGRTLTLTLTVPRENEEEVEEAAKRLAEELAADPELESAGG [r13_968_TrROS_Hall]	2.82 ± 0.064 kcal/mol	4.72 ± 0.12 kcal/mol	4.42 ± 0.17 kcal/mol

Sequence	folding stability dG unfold [1]	folding stability dG unfold [2]	folding stability dG unfold [3]
SAGGSAGGSAGGNIEIFYFPDGYVVITIWDPDEGWRIVITAKIDPGDGKIKEMDIMPVPSAGGSAGGSAGGS [r10_613_TrROS]	2.67 ± 0.18 kcal/mol	2.91 ± 0.13 kcal/mol	2.85 ± 0.19 kcal/mol
SAGGSAMMELEIEIKVEGMTEEELRELAERLAAELTPEGWKVVAVRVERVDEEEGVVRVTVVVEPVSAGGSA [r15_96_TrROS_Hall]	4.31 ± 0.35 kcal/mol	3.83 ± 0.16 kcal/mol	4.18 ± 0.27 kcal/mol
SAGGSAGGSPKPKVKKFNMEPVEIEPNPDNGHLSIRFPNGYYIQFHYDDDGEYELQIMPPDDLSAGGSAGGS [r12_351_TrROS]	-0.0555 ± 0.14 kcal/mol	0.764 ± 0.14 kcal/mol	0.455 ± 0.17 kcal/mol
SAGGSADNLMFMFEFEFSFEWSNPDGEPMTMEVPITVMIPIPIPVPKATPEAMKDPEKAKEAQEEASAGGSA [r15_728_TrROS]	2.39 ± 0.22 kcal/mol	3.51 ± 0.19 kcal/mol	3.39 ± 0.32 kcal/mol
SAGGGMEPKPVEVTLTIPKGTVTPEDKVPVSTIAKLLGIPEDTEVTVEKITPVPNSDTELVTLTIVTSAGGS [r16_165_JUSTAS]	0.412 ± 0.023 kcal/mol	0.571 ± 0.074 kcal/mol	0.615 ± 0.12 kcal/mol
SAGGSMEVKVVSYDEEKGVLVIEVDEDETVEELVERLRSIPGLKVEVEVVEKDGKLYVVIRVEKKESAGGSA [r2_44_TrROS_Hall]	3.17 ± 0.13 kcal/mol	4.27 ± 0.09 kcal/mol	3.98 ± 0.18 kcal/mol
SAIKGMPLEELAKHIENEMRKMHPNVKIKVEIVDVPPDYLVIEVEITVRHPNPGGQQVEFPMTIVIDLDSAG [r14_187_TrROS]	1.81 ± 0.21 kcal/mol	1.5 ± 0.17 kcal/mol	1.81 ± 0.21 kcal/mol
SPDPGMKPRPMYMIRIKIEVTTPDGKKRGKHDFIIQSPEEAKEFIEELAENRGMKIKKIDIDIYPMPWLKSA [r9_1226_TrROS]	1.5 ± 0.044 kcal/mol	2.56 ± 0.061 kcal/mol	2.18 ± 0.1 kcal/mol
SAGKIPPGEEQKKKIKLGGKEIKIKMWTYKNPDGQPHMMFRVEYDGEPGIFNPDSGRPMTPDDIKKMLKSAG [r5_138_TrROS]	0.0292 ± 0.19 kcal/mol	1.24 ± 0.35 kcal/mol	0.788 ± 0.26 kcal/mol
SAGGSAGGKEPFTVDKVEATVPFPGADGTEGVVLVTLPNGEKRLIPASELPLENLQPDGTVSSASAGGSAGG [r6_609_TrMRF]	0.161 ± 0.034 kcal/mol	0.328 ± 0.037 kcal/mol	0.302 ± 0.11 kcal/mol
SAGGSAGGSAGDSPSTPVLVTETFTFPVTVTAPNEGGYSTTTSTVTVTVTLEVYVSPSFPSAGGSAGGSAGG [r17_186_JUSTAS]	2.2 ± 0.053 kcal/mol	2.92 ± 0.04 kcal/mol	2.62 ± 0.061 kcal/mol
SAGGSAGGSMDGTVRQPPGGVWEVRARPPAVTPVLVTVVLVTVDADGNLILNPVAGYTHPDELSAGGSAGGS [r12_1027_TrMRF]	0.359 ± 0.032 kcal/mol	1.11 ± 0.074 kcal/mol	0.848 ± 0.077 kcal/mol
SAGGSAKPVKVDTLVLTAPFESKEEAEKAVEEFAKAVAEKLPKDVKVEVEVKYDPETKTFTAVVKASAGGSA [r15_981_TrMRF]	2.23 ± 0.093 kcal/mol	2.368 ± 0.018 kcal/mol	2.34 ± 0.051 kcal/mol
SAGGSAGGSAGGGRTYTFTLPDGTVLTVTADDMTEEEIRAKLEAEGGEIVEITVEPGLSSAGGSAGGSAGGS [r10_572_JUSTAS]	2.43 ± 0.034 kcal/mol	2.991 ± 0.018 kcal/mol	2.86 ± 0.07 kcal/mol
SAGGSAGGSEITITLDEETGELHITVPESVKEVKIKVNGEEKTVTLKPGQTLTIPLENVEIEESAGGSAGGS [r20_26_TrROS_Hall]	1.75 ± 0.11 kcal/mol	1.55 ± 0.063 kcal/mol	1.7 ± 0.2 kcal/mol
SAGGSAGGAPLMIMLEAEWKREPDPNGDKRRKVKLRVSIMTPRPDPDGKPNMHMISIPITFKVKSAGGSAGG [r6_224_TrROS]	2.87 ± 0.087 kcal/mol	4.08 ± 0.07 kcal/mol	3.51 ± 0.2 kcal/mol
SAGGEEEKVVLTPEEIERLLKELAEALGLEVTITEIEVEEDYVTITVEIKVDGKTLTLTLKLRIEPEPSAGG [r13_652_TrROS_Hall]	4 ± 0.42 kcal/mol	5.23 ± 0.15 kcal/mol	5.14 ± 0.36 kcal/mol
SAGLSEIVKKLFPEEEIEIEVEERTLPGPPNIPVVEFDVRITFKDGRTFRARAIRYPDFVLIEVEPLEPSAG [r14_28_TrMRF]	3.26 ± 0.11 kcal/mol	3.75 ± 0.065 kcal/mol	3.62 ± 0.11 kcal/mol
SAGGMSITLTPDDGSTLTIPLSDPTLSLEEVVQMVVDKQEGAVNIQVTITFPDSEVTKTYTIPSPGGSAGGS [r16_216_JUSTAS]	0.846 ± 0.041 kcal/mol	0.275 ± 0.13 kcal/mol	0.605 ± 0.13 kcal/mol
SEVVLEVKVEVRVKRNENGELEVEVKVEVKLVELEPPEPRIELSEEEREKLKEEAEKLGLELTDEELEALSA [r9_487_TrROS_Hall]	1.9 ± 0.13 kcal/mol	1.87 ± 0.15 kcal/mol	1.75 ± 0.2 kcal/mol
SDWKIVDIEREGNWYTITIQFKNPDGNPWMVTLYMPPNGPYRVEVYPPGDGKEREVRVPMDDIDEILDAISA [r9_91_TrROS]	1.33 ± 0.053 kcal/mol	2.96 ± 0.038 kcal/mol	2.49 ± 0.11 kcal/mol

Reference: the supplement of paper PMC12764529
